T1: Recombinant human CD40L (human, UniProt P29965 108-261, limits assumed)
T1 construct: also called CD40 ligand
T1 sequence (looked up): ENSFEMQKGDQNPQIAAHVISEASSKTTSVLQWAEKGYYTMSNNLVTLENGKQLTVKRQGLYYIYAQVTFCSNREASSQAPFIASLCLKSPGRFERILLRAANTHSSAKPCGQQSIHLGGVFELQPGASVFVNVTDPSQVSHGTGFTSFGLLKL

B1: DOM.98 (other)
VH: EVQLLESGGGLVQPGGSLRLSCAASGFTFDRYVMVWVRQAPGKDLEWVSGITPSGRRTYYADSVKGRFTISRDNSKDTLYLQMNSLRAEDTAVYYCAKVLGRHFDPLLPSFDYWGQGTLVTVSS
notes: VH dAb
B2: DOM-11 (other)
VH: EVQLLESGGGLVQPGGSLRLSCAASGFTFGDYEMSWVRQAPGKGLEWVSGIDGEGSDTYYADSVKGRFTISRDNSKNTLYLQMNSLRAEDTAVYYCAKPGRSFDYWGQGTLVTVSS
notes: VH dAb
B3: DOM-22 (other)
VH: EVQLLESGGGLVQPGGSLRLSCAASGFTFHNYEMSWVRQAPGKGLEWVSSISSGGSSTYYADSVKGRFTISRDNSKNTLYLQMNSLRAEDTAVYYCAKPGVKFDYWGQGTLVTVSS
notes: VH dAb
B4: DOM-28 (other)
VH: EVQLLESGGGLVQPGGSLRLSCAASGFTFGHYDMAWVRQAPGKGLEWVSTISDNGNGTYYADSVKGRFTISRDNSKNTLYLQMNSLRAEDTAVYYCAKPGRDFDYWGQGTLVTVSS
notes: VH dAb
B5: DOM-23 (other)
VH: EVQLLESGGGLVQPGGSLRLSCAASGFTFGLYEMTWVRQAPGKGLEWVSSITGDGISTYYADSVKGRFTISRDNSRNTLYLQMNSLRAEDTAVYYCAKAGRKFDYWGQGTLVTVSS
notes: VH dAb
B6: DOM-29 (other)
VH: EVQLLESGGGLVQPGGSLRLSCAASGFTFGRYQMAWVRQAPGKGLEWVSSISSDGGGTYYADSVKGRFTISRDNSKNTLYLQMNSLRAEDTAVYYCAKPGRAFDYWGQGTLVTVSS
notes: VH dAb
B7: DOM-14 (other)
VH: EVQLLESGGGLVQPGGSLRLSCAASGFTFWSYDMTWVRQAPGKGLEWVSSIMASGDDTYYADSVKGRFTISRDNSKNTLYLQMNSLRAEDTAVYYCAKWDRDFDYWGQGTLVTVSS
notes: VH dAb
B8: DOM-25 (other)
VH: EVQLLESGGGLVQPGGSLRLSCAASGFTFDNYEMTWVRQAPGKGLEWVSTITSQGTSTYYADSVKGRFTISRDNSKNTLYLQMNSLRAEDTAVYYCAKPDRSFDYWGQGTLVTVSS
notes: VH dAb
B9: DOM-41 (other)
VH: EVQLLESGGGLVQPGGSLRLSCAASGFTFFEYEMTWVRQAPGKGLEWVSSIANDGSTTYYADSVKGRFTISRDNSKNTLYLQMNSLRAEDTAVYYCAKPDRQFDYWGQGTLVTVSS
notes: VH dAb
B10: DOM-26 (other)
VH: EVQLLESGGGLVQPGGSLRLSCAASGFTFRSYEMTWVRQAPGKGLEWVSSITSDGGTTYYADSVKGRFTISRDNSKNTLYLQMNSLRAEDTAVYYCAKPDKTFDYWGQGTLVTVSS
notes: VH dAb
B11: DOM-19 (other)
VH: EVQLLESGGGLVQPGGSLRLSCAASGFPFPQYQMAWVRQAPGKGLEWVSMITSDGLDTYYADSVKGRFTISRDNSKNTLYLQMNSLRAEDTAVYYCAKPEPLFDYWGQGTLVTVSS
notes: VH dAb
B12: DOM-42 (other)
VH: EVQLLESGGGLVQPGGSLRLSCAASGFTFGPYEMTWVRQAPGKGLEWVSSIVGDGLDTYYADSVKGRFTISRDNSKNTLYLQMNSLRAEDTAVYYCAKPDRVFDYWGQGTLVTVSS
notes: VH dAb
B13: DOM.97 (other)
VH: EVQLLESGGGLVQPGGSLRLSCAASGFTFEEYGMSWVRQAPGKGLEWVSTISPIGVTTYYADSVKGRFTISRDNSKNTLYLQMNSLRAEDTAVYYCAKNAYDRKSNFDYWGQGTLVTVSS
notes: VH dAb

Target: T1, Recombinant human CD40L
Test: CD40L/CD40-Fc receptor binding assay;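 note: plate assay with coated human CD40-Fc, bound ligand detected via HRP anti-biotin antibody and TMB, OD at 450 nm, lower signal indicates stronger inhibition by dAb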

Binding result, binds:
B1
B2
B3
B4
B5
B6
B7
B8
B9
B10
B11
B12
B13
